Results as given in the Human Domainome abundance scans (Beltran et al. 2025).
± gives the uncertainty stated by the source.

B1: RAS guanyl-releasing protein 1, residues 539 to 593; numbered along this chain, O95267 (parent)
chain: GFPHNFQETTYLKPTFCDNCAGFLWGVIKQGYRCKDCGMNCHKQCKDLVVFECKK
B2: POU domain, class 4, transcription factor 2, residues 256 to 327; numbered along this chain, Q12837 (parent)
chain: RDLEAFAERFKQRRIKLGVTQADVGSALANLKIPGVGSLSQSTICRFESLTLSHNNMIALKPILQAWLEEAE

Variants of: B1
Experiment: abundance fitness (aPCA) (normalised: wild type 0, dead -1); higher = more abundant; growth selection in yeast, the domain comes from the species named
Details: Homo sapiens

GFPHNFQETTYLKPTFCDNCAGFLWGVIKQGYRCKDCGMNCHKQCKDLVVFNCKK [E52N] and GFPHNFQETTYLKPTFCDNCAGFLWGVIKQGYRCKDCGMNCHKQCKDLVVFPCKK [E52P] are within error of each other in abundance fitness: -0.174 ± 0.18 for the first, -0.066 ± 0.071 for the second.

GFPHNFQETTYLKPTFCDNCAGFLWGVIKQGYRCKDCGMNCHKQCKDLVVFQCKK [E52Q] and GFPHNFQETTYLKPTFCDNCAGFLWGVIKQGYRCKDCGMNCHKQCKDLVVFSCKK [E52S] are within error of each other in abundance fitness: -0.166 ± 0.15 for the first, -0.203 ± 0.09 for the second.

GFPHNFQETTYLKPTFCDNCAGFLWGVIKQGYRCKDCGMNCHKQCKDLVVFTCKK [E52T] and GFPHNFQETTYLKPTFCDNCAGFLWGVIKQGYRCKDCGMNCHKQCKDLVVFVCKK [E52V] are within error of each other in abundance fitness: -0.037 ± 0.086 for the first, -0.148 ± 0.055 for the second.

GFPHNFQETTYLKPTFCDNCAGFLWGVIKQGYRCKDCGMNCHKQCKDLVVFWCKK [E52W] and GFPHNFQETTYLKPTFCDNCAGFLWGVIKQGYRCKDCGMNCHKQCKDLVVFEDKK [C53D] are within error of each other in abundance fitness: -0.267 ± 0.11 for the first, -0.061 ± 0.14 for the second.

GFPHNFQETTYLKPTFCDNCAGFLWGVIKQGYRCKDCGMNCHKQCKDLVVFEEKK [C53E] and GFPHNFQETTYLKPTFCDNCAGFLWGVIKQGYRCKDCGMNCHKQCKDLVVFEFKK [C53F] are within error of each other in abundance fitness: -0.209 ± 0.11 for the first, -0.32 ± 0.16 for the second.

GFPHNFQETTYLKPTFCDNCAGFLWGVIKQGYRCKDCGMNCHKQCKDLVVFEHKK [C53H] and GFPHNFQETTYLKPTFCDNCAGFLWGVIKQGYRCKDCGMNCHKQCKDLVVFEIKK [C53I] are within error of each other in abundance fitness: -0.009 ± 0.2 for the first, -0.297 ± 0.2 for the second.

Going from GFPHNFQETTYLKPTFCDNCAGFLWGVIKQGYRCKDCGMNCHKQCKDLVVFEKKK [C53K] to GFPHNFQETTYLKPTFCDNCAGFLWGVIKQGYRCKDCGMNCHKQCKDLVVFELKK [C53L], the abundance fitness rises from -0.257 ± 0.19 to 0.021 ± 0.085.

Compared with GFPHNFQETTYLKPTFCDNCAGFLWGVIKQGYRCKDCGMNCHKQCKDLVVFEMKK [C53M], GFPHNFQETTYLKPTFCDNCAGFLWGVIKQGYRCKDCGMNCHKQCKDLVVFENKK [C53N] is higher in abundance fitness: -0.095 ± 0.051 for the first, 0.13 ± 0.13 for the second.

Going from GFPHNFQETTYLKPTFCDNCAGFLWGVIKQGYRCKDCGMNCHKQCKDLVVFEQKK [C53Q] to GFPHNFQETTYLKPTFCDNCAGFLWGVIKQGYRCKDCGMNCHKQCKDLVVFERKK [C53R], the abundance fitness falls from 0.043 ± 0.077 to -0.255 ± 0.067.

GFPHNFQETTYLKPTFCDNCAGFLWGVIKQGYRCKDCGMNCHKQCKDLVVFETKK [C53T] and GFPHNFQETTYLKPTFCDNCAGFLWGVIKQGYRCKDCGMNCHKQCKDLVVFEVKK [C53V] are within error of each other in abundance fitness: -0.245 ± 0.1 for the first, -0.103 ± 0.062 for the second.

GFPHNFQETTYLKPTFCDNCAGFLWGVIKQGYRCKDCGMNCHKQCKDLVVFEWKK [C53W] and GFPHNFQETTYLKPTFCDNCAGFLWGVIKQGYRCKDCGMNCHKQCKDLVVFEYKK [C53Y] are within error of each other in abundance fitness: -0.082 ± 0.074 for the first, -0.198 ± 0.16 for the second.

GFPHNFQETTYLKPTFCDNCAGFLWGVIKQGYRCKDCGMNCHKQCKDLVVFECAK [K54A] and GFPHNFQETTYLKPTFCDNCAGFLWGVIKQGYRCKDCGMNCHKQCKDLVVFECCK [K54C] are within error of each other in abundance fitness: -0.233 ± 0.1 for the first, -0.157 ± 0.046 for the second.

GFPHNFQETTYLKPTFCDNCAGFLWGVIKQGYRCKDCGMNCHKQCKDLVVFECDK [K54D] and GFPHNFQETTYLKPTFCDNCAGFLWGVIKQGYRCKDCGMNCHKQCKDLVVFECEK [K54E] are within error of each other in abundance fitness: -0.186 ± 0.15 for the first, -0.103 ± 0.1 for the second.

GFPHNFQETTYLKPTFCDNCAGFLWGVIKQGYRCKDCGMNCHKQCKDLVVFECFK [K54F] and GFPHNFQETTYLKPTFCDNCAGFLWGVIKQGYRCKDCGMNCHKQCKDLVVFECGK [K54G] are within error of each other in abundance fitness: -0.228 ± 0.092 for the first, -0.303 ± 0.1 for the second.

GFPHNFQETTYLKPTFCDNCAGFLWGVIKQGYRCKDCGMNCHKQCKDLVVFECHK [K54H] and GFPHNFQETTYLKPTFCDNCAGFLWGVIKQGYRCKDCGMNCHKQCKDLVVFECIK [K54I] are within error of each other in abundance fitness: -0.567 ± 0.27 for the first, -0.266 ± 0.12 for the second.

Compared with GFPHNFQETTYLKPTFCDNCAGFLWGVIKQGYRCKDCGMNCHKQCKDLVVFECLK [K54L], GFPHNFQETTYLKPTFCDNCAGFLWGVIKQGYRCKDCGMNCHKQCKDLVVFECMK [K54M] is higher in abundance fitness: -0.269 ± 0.087 for the first, 0.018 ± 0.098 for the second.

Going from GFPHNFQETTYLKPTFCDNCAGFLWGVIKQGYRCKDCGMNCHKQCKDLVVFECNK [K54N] to GFPHNFQETTYLKPTFCDNCAGFLWGVIKQGYRCKDCGMNCHKQCKDLVVFECPK [K54P], the abundance fitness falls from -0.113 ± 0.089 to -0.586 ± 0.31.

GFPHNFQETTYLKPTFCDNCAGFLWGVIKQGYRCKDCGMNCHKQCKDLVVFECQK [K54Q] and GFPHNFQETTYLKPTFCDNCAGFLWGVIKQGYRCKDCGMNCHKQCKDLVVFECRK [K54R] are within error of each other in abundance fitness: -0.113 ± 0.16 for the first, -0.028 ± 0.076 for the second.

GFPHNFQETTYLKPTFCDNCAGFLWGVIKQGYRCKDCGMNCHKQCKDLVVFECVK [K54V] and GFPHNFQETTYLKPTFCDNCAGFLWGVIKQGYRCKDCGMNCHKQCKDLVVFECWK [K54W] are within error of each other in abundance fitness: -0.248 ± 0.076 for the first, -0.378 ± 0.13 for the second.

GFPHNFQETTYLKPTFCDNCAGFLWGVIKQGYRCKDCGMNCHKQCKDLVVFECKD [K55D] and GFPHNFQETTYLKPTFCDNCAGFLWGVIKQGYRCKDCGMNCHKQCKDLVVFECKE [K55E] are within error of each other in abundance fitness: -0.528 ± 0.24 for the first, -0.242 ± 0.31 for the second.

First: GFPHNFQETTYLKPTFCDNCAGFLWGVIKQGYRCKDCGMNCHKQCKDLVVFECKG [K55G]
Second: GFPHNFQETTYLKPTFCDNCAGFLWGVIKQGYRCKDCGMNCHKQCKDLVVFECKH [K55H]
The abundance fitness of the first is higher: -0.084 ± 0.14 for the first, -0.597 ± 0.26 for the second.

Compared with GFPHNFQETTYLKPTFCDNCAGFLWGVIKQGYRCKDCGMNCHKQCKDLVVFECKL [K55L], GFPHNFQETTYLKPTFCDNCAGFLWGVIKQGYRCKDCGMNCHKQCKDLVVFECKN [K55N] is higher in abundance fitness: -0.718 ± 0.32 for the first, -0.138 ± 0.18 for the second.

Compared with GFPHNFQETTYLKPTFCDNCAGFLWGVIKQGYRCKDCGMNCHKQCKDLVVFECKR [K55R], GFPHNFQETTYLKPTFCDNCAGFLWGVIKQGYRCKDCGMNCHKQCKDLVVFECKS [K55S] is higher in abundance fitness: -0.435 ± 0.37 for the first, 0.077 ± 0.13 for the second.

With GFPHNFQETTYLKPTFCDNCAGFLWGVIKQGYRCKDCGMNCHKQCKDLVVFECKT [K55T] the abundance fitness was -0.271 ± 0.16.

Variants of: B2
Experiment: as above
Details: Homo sapiens

Variant ADLEAFAERFKQRRIKLGVTQADVGSALANLKIPGVGSLSQSTICRFESLTLSHNNMIALKPILQAWLEEAE [R1A] has an abundance fitness of 0.078 ± 0.093.
